Results taken from patent US20240376151A1, “STAPLED PEPTIDES AND METHODS THEREOF” (FOG PHARMACEUTICALS, INC., priority 2022, published 2024).
Ends that are not written are not given here.

Biological target: T1, RNF31 PUB domain (Homo sapiens, UniProt Q96EP0)
T1 construct: MBP-TEV (N, cleaved yes); made in house; host or cells: E. coli BL21 (DE3) pLysS
T1 sequence (Q96EP0 1-179): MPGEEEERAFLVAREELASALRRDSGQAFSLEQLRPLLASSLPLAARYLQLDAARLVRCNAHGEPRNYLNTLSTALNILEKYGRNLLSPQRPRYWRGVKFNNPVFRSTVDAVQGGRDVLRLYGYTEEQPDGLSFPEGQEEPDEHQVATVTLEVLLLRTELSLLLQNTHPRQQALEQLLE
Assay: Phage Library Screening with NGS, RNF31 PUB domain
Assay type: binding
Conditions: for Phage library screen NGS readout, Target Concentration 10 / Phage library screen NGS readout, Target Concentration 30 / Phage library screen NGS readout, Target Concentration 100 / Phage library screen NGS readout, Target Concentration 300 / Phage library screen NGS readout, Target Concentration 1000: RNF31 PUB domain clusters C41-C45; for Phage library screen NGS readout, BLANK: clusters C41-C45

[1] = target concentration 1000, first column
[2] = target concentration 1000, second column

| Sequence | Phage library screen NGS readout, Target Concentration 10 | Phage library screen NGS readout, Target Concentration 30 | Phage library screen NGS readout, Target Concentration 100 | Phage library screen NGS readout, Target Concentration 300 | Phage library screen NGS readout, Target Concentration 1000 [1] | Phage library screen NGS readout, Target Concentration 1000 [2] | Phage library screen NGS readout, BLANK (column 1 of 5) | Phage library screen NGS readout, BLANK (column 2 of 5) | Phage library screen NGS readout, BLANK (column 3 of 5) | Phage library screen NGS readout, BLANK (column 4 of 5) | Phage library screen NGS readout, BLANK (column 5 of 5) |
| --- | --- | --- | --- | --- | --- | --- | --- | --- | --- | --- | --- |
| DPAMIDCFLAAQVCATY (not fully specified; cysteine pairing not given here) | 0 | 0 | 0 | 1 | 6 | 6 | 0 | 0 | 0 | 0 | 0 |
| DPAFAQCEVAAMVCTTY | 0 | 0 | 0 | 2 | 5 | 6 | 0 | 0 | 0 | 0 | 0 |
| DPAEWDCLYAAFDCFAN | 2 | 2 | 0 | 3 | 15 | 7 | 0 | 0 | 0 | 0 | 0 |
| DPAQHECIYAAWDCDML | 1 | 1 | 1 | 5 | 6 | 8 | 3 | 2 | 0 | 1 | 0 |
| DPAYDLCLNAAVACTYV | 0 | 2 | 2 | 19 | 62 | 71 | 1 | 2 | 1 | 0 | 0 |
| DPAFDWCLYAADDCAET | 1 | 0 | 0 | 3 | 31 | 12 | 0 | 0 | 0 | 0 | 1 |
| DPAEDWCMYAAWDCQME | 1 | 0 | 0 | 4 | 22 | 10 | 0 | 0 | 0 | 0 | 0 |
| DPAHANCQLAADVCSTY | 0 | 0 | 0 | 13 | 49 | 33 | 1 | 0 | 0 | 0 | 0 |
| DPATWWCLYAAEDCVNI | 0 | 1 | 0 | 2 | 6 | 6 | 0 | 0 | 0 | 0 | 4 |
| DPAYRDCDWAALYCDDF | 0 | 0 | 1 | 2 | 12 | 12 | 0 | 3 | 0 | 0 | 1 |
| DPAMEWCWDAAVFCTYS | 1 | 1 | 0 | 6 | 18 | 16 | 2 | 1 | 0 | 1 | 1 |
| DPAYDYCLYAAYDCTQT | 0 | 0 | 1 | 5 | 48 | 38 | 1 | 0 | 0 | 1 | 0 |
| DPAQMECIDAAIMCSYT | 0 | 0 | 0 | 3 | 5 | 5 | 0 | 0 | 0 | 0 | 0 |
| DPAYEDCAWAALYCDMT | 0 | 0 | 0 | 10 | 70 | 64 | 0 | 0 | 0 | 0 | 0 |
| DPAMQECMDAAIMCTYA | 0 | 0 | 0 | 4 | 14 | 8 | 0 | 2 | 0 | 0 | 0 |
| DPAQDQCISAAVLCTYT | 0 | 0 | 0 | 22 | 44 | 37 | 0 | 0 | 1 | 0 | 0 |
| DPAYDYCLYAAQDCVWW | 0 | 0 | 0 | 1 | 6 | 5 | 0 | 0 | 0 | 0 | 0 |
| DPAMQDCQLAALVCTTY | 0 | 1 | 0 | 1 | 6 | 6 | 0 | 0 | 0 | 0 | 0 |
